Measurements from patent US20250042995A1 (AKESO BIOPHARMA, published 2025).
Residue numbers refer to the chain shown, from its start.

Tests used:
human LAG3-mFc [1] = biological target: T1, human LAG3-mFc (human, UniProt P18627 23-450); assay: ELISA, human LAG3-mFc coated 2 ug/mL
T1 construct: also called antigen human LAG3-mFc; not shown: mFc: Fc protein fragment of mouse IgG
T1 sequence (looked up): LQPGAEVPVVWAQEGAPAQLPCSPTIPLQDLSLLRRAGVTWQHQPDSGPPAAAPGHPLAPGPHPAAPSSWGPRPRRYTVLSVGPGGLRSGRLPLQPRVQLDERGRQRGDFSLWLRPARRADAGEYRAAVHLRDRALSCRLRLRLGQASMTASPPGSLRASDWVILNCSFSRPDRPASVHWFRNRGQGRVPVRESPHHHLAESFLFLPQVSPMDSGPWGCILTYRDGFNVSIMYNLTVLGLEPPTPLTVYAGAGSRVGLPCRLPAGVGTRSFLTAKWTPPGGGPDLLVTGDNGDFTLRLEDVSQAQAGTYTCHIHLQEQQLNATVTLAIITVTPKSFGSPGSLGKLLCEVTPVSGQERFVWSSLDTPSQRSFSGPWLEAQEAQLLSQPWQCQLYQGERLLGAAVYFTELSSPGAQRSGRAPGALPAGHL
Procedure: Then the ELISA plate coated with the antigen was washed once with PBST and then blocked with a PBS solution containing 1% BSA as a blocking solution at 37° C. for 2 h. After blocking, the ELISA plate was washed 3 times with PBST. The ELISA plate containing the test antibodies was incubated at 37° C. for 30 min and then washed 3 times with PBST. After washing, a working solution of an HRP-labeled goat anti-human IgG (H+L) (Jackson, Cat. No. 109-035-088) secondary antibody diluted at a ratio of 1:5000 was added, and then the plate was incubated at 37° C. for 30 min. After incubation, the plate was washed 4 times with PBST, TMB (Neogen, 308177) was added for chromogenesis in the dark for 5 min, and then a stop solution was added to terminate the chromogenic reaction. The ELISA plate was put into an ELISA plate reader immediately, and the OD value of each well in the ELISA plate was read at 450 nm. The data were analyzed and processed by SoftMax Pro 6.2.1.

[2] = biological target: T2, human LAG3 (full length) expressed on cells (human, UniProt P18627 23-525); assay: flow cytometry on 293T-LAG3 cells
T2 construct: whole, on cells; also called huLAG3FL
T2 sequence (looked up): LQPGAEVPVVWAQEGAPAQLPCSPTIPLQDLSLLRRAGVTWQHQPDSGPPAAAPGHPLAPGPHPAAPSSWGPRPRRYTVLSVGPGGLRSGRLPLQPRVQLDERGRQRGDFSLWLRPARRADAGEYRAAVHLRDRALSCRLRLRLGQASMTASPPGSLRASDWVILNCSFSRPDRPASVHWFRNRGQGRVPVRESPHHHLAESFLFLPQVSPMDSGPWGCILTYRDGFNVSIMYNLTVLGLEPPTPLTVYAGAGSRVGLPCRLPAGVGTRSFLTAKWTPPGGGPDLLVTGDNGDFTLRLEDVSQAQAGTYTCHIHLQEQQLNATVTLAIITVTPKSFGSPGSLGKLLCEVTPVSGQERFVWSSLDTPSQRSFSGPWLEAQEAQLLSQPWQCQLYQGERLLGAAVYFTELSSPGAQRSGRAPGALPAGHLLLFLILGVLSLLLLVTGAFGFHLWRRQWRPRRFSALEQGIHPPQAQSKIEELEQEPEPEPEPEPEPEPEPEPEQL
Procedure: After centrifugation and washing several times with 1% PBSA, 100 μL of FITC goat anti-human IgG (purchased from Jackson, Cat. No. 109-095-098) (diluted at a 1:500 ratio) was added into each tube, and the mixture was incubated on ice in the dark for 40 min. After washing once with 1% PBSA, 200 μL of 1% PBSA was added to resuspend the cells. Fluorescence signals were detected with FITC channel on a flow cytometer.

human LAG3-mFc [3] = biological target: T1, human LAG3-mFc; assay: competitive flow cytometry: antibody titrated against 3 nM LAG3-mFc binding to MHC II on Raji cells
Procedure: Raji cells (medium: 1640+10% FBS) (Cell Resource Center, Shanghai Institutes for Biological Sciences, Chinese Academy of Sciences, Cat. No. TCHu 44) were added into EP tubes at 300,000 cells per sample. 1000 μL of 1% PBSA (PBS containing 1% BSA) was added. The mixture was centrifuged at 600×g for 5 min, and the supernatant was discarded. […] The mixture was mixed well and pre-incubated on ice for 30 min. 100 μL of the pre-incubated mixture of antibody and protein was added to the sample. The mixture was mixed well and incubated on ice in the dark for 1 h; 200 μL of 1% PBSA was added, and the mixture was centrifuged at 600×g for 5 min, followed by removal of the supernatant, and then washed twice; 100 μL of an APC anti mouse antibody (purchased from Biolegend, Cat. No. 405308) (diluted at a 1:400 ratio) was added, and the mixture was mixed well and incubated on ice in the dark for 40 min; 200 μL of 1% PBSA was added, and the mixture was centrifuged at 600×g for 5 min, followed by removal of the supernatant; 200 μL of Washing Buffer was added into each tube to resuspend the cells, and then the suspension was transferred to a sample loading tube for testing on a flow cytometer.

B1: H7L9(hG4WT) (antibody, human IgG4 S228P, kappa, V domains shown)
VH: QVQLQQWGAGLLKPSETLSLTCAVYGGSISDYYWNWIRQPPGKGLEWIGEINHRGTTNSNPSLKSRVTLSLDTSKNQFSLKLRSVTAADTAVYYCAFGYSDYEYDWFDPWGQGTLVTVSS
VL: EIVLTQSPATLSLSPGERATLSCRASQTISSYLAWYQQKPGQAPRLLIYDGSNRATGIPARFSGSGSGTDFTLTISSLEPEDFAVYYCQQRSNWPLTFGQGTNLEIKR
notes: Humanized anti-LAG3 IgG4 (Ig gamma-4 chain C region) with human kappa constant region
EC50 (human LAG3-mFc [1]): 0.142 nM | EC50 [2]: 4.81 nM | EC50 (human LAG3-mFc [3]): 1.32 nM

B2: H7L10(hG4WT) (antibody, human IgG4 S228P, kappa, V domains shown)
VH: B1 VH
VL: B1 VL with T28S, L96I
notes: as for B1
EC50 (human LAG3-mFc [1]): 0.157 nM | EC50 [2]: 4.17 nM | EC50 (human LAG3-mFc [3]): 1.27 nM
